T1: Orc2 (subunit of the purified ORC) (S. cerevisiae, UniProt P32833 1-620)
T1 sequence (looked up): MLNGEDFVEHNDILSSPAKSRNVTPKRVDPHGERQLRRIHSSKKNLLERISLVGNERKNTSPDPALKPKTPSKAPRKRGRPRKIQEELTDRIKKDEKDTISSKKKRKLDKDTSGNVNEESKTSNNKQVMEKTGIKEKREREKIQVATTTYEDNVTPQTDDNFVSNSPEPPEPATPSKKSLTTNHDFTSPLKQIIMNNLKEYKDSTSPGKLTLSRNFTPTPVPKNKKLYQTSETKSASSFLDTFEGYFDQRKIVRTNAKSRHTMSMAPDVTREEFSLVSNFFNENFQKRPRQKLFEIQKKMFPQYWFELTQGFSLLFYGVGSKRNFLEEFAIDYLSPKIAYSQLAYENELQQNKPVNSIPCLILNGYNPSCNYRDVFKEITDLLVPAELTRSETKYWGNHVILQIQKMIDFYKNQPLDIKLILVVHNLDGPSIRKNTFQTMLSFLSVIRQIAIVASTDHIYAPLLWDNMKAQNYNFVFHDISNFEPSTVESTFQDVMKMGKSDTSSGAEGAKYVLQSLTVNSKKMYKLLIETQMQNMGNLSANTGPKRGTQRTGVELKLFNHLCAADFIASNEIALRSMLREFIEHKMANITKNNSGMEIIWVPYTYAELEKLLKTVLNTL

T2: Orc1 (subunit of the purified ORC) (S. cerevisiae, UniProt P54784 1-914)
T2 sequence (looked up): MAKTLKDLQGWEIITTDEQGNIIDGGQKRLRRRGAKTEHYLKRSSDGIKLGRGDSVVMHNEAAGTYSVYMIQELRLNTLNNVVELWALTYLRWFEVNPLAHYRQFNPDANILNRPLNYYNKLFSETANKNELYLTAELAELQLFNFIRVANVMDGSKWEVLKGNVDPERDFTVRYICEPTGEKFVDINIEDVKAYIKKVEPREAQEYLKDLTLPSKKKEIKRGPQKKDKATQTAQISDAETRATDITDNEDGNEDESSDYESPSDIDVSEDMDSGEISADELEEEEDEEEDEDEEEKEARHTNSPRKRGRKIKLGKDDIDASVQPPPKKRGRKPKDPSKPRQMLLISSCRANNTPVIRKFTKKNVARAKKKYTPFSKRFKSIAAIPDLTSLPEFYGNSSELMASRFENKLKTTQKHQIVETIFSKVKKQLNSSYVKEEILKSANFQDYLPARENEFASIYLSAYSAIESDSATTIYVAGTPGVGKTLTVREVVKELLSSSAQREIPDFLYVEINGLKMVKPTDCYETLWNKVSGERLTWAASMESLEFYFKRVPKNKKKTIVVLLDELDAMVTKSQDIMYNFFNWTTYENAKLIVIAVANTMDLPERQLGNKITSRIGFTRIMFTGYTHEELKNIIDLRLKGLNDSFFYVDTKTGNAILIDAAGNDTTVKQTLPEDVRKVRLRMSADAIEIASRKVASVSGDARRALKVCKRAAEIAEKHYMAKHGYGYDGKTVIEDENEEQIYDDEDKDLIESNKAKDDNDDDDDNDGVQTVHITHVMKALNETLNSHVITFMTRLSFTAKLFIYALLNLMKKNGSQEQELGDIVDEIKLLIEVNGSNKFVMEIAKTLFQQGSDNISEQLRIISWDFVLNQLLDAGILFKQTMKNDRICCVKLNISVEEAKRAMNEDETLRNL

B1: Orc4 (subunit of the purified ORC) (natural protein, S. cerevisiae, UniProt P54791 1-529, looked up)
chain: MTISEARLSPQVNLLPIKRHSNEEVEETAAILKKRTIDNEKCKDSDPGFGSLQRRLLQQLYGTLPTDEKIIFTYLQDCQQEIDRIIKQSIIQKESHSVILVGPRQSYKTYLLDYELSLLQQSYKEQFITIRLNGFIHSEQTAINGIATQLEQQLQKIHGSEEKIDDTSLETISSGSLTEVFEKILLLLDSTTKTRNEDSGEVDRESITKITVVFIFDEIDTFAGPVRQTLLYNLFDMVEHSRVPVCIFGCTTKLNILEYLEKRVKSRFSQRVIYMPQIQNLDDMVDAVRNLLTVRSEISPWVSQWNETLEKELSDPRSNLNRHIRMNFETFRSLPTLKNSIIPLVATSKNFGSLCTAIKSCSFLDIYNKNQLSNNLTGRLQSLSDLELAILISAARVALRAKDGSFNFNLAYAEYEKMIKAINSRIPTVAPTTNVGTGQSTFSIDNTIKLWLKKDVKNVWENLVQLDFFTEKSAVGLRDNATAAFYASNYQFQGTMIPFDLRSYQMQIILQELRRIIPKSNMYYSWTQL

Tests used:
Test in all cases: cryo-EM structure
[1] = target: T1, Orc2 (subunit of the purified ORC)
[2] = target: B1
[3] = target: T2, Orc1 (subunit of the purified ORC)

Binder | binding result [1] | binding result [2] | binding result [3]
Orc3 (subunit of the purified ORC) (natural protein, S. cerevisiae, UniProt P54790 1-616, looked up) MSDLNQSKKMNVSEFADAQRSHYTVYPSLPQSNKNDKHIPFVKLLSGKESEVNVEKRWELYHQLHSHFHDQVDHIIDNIEADLKAEISDLLYSETTQKRRCFNTIFLLGSDSTTKIELKDESSRYNVLIELTPKESPNVRMMLRRSMYKLYSAADAEEHPTIKYEDINDEDGDFTEQNNDVSYDLSLVENFKRLFGKDLAMVFNFKDVDSINFNTLDNFIILLKSAFKYDHVKISLIFNINTNLSNIEKNLRQSTIRLLKRNYHKLDVSSNKGFKYGNQIFQSFLDTVDGKLNLSDRFVEFILSKMANNTNHNLQLLTKMLDYSLMSYFFQNAFSVFIDPVNVDFLNDDYLKILSRCPTFMFFVEGLIKQHAPADEILSLLTNKNRGLEEFFVEFLVRENPINGHAKFVARFLEEELNITNFNLIELYHNLLIGKLDSYLDRWSACKEYKDRLHFEPIDTIFQELFTLDNRSGLLTQSIFPSYKSNIEDNLLSWEQVLPSLDKENYDTLSGDLDKIMAPVLGQLFKLYREANMTINIYDFYIAFRETLPKEEILNFIRKDPSNTKLLELAETPDAFDKVALILFMQAIFAFENMGLIKFQSTKSYDLVEKCVWRGI | binds | – | –
Orc6 (subunit of the purified ORC) (natural protein, S. cerevisiae, UniProt P38826 1-435, looked up) MSMQQVQHCVAEVLRLDPQEKPDWSSGYLKKLTNATSILYNTSLNKVMLKQDEEVARCHICAYIASQKMNEKHMPDLCYYIDSIPLEPKKAKHLMNLFRQSLSNSSPMKQFAWTPSPKKNKRSPVKNGGRFTSSDPKELRNQLFGTPTKVRKSQNNDSFVIPELPPMQTNESPSITRRKLAFEEDEDEDEEEPGNDGLSLKSHSNKSITGTRNVDSDEYENHESDPTSEEEPLGVQESRSGRTKQNKAVGKPQSELKTAKALRKRGRIPNSLLVKKYCKMTTEEIIRLCNDFELPREVAYKIVDEYNINASRLVCPWQLVCGLVLNCTFIVFNERRRKDPRIDHFIVSKMCSLMLTSKVDDVIECVKLVKELIIGEKWFRDLQIRYDDFDGIRYDEIIFRKLGSMLQTTNILVTDDQYNIWKKRIEMDLALTEPL | binds | – | –
Orc5 (subunit of the purified ORC) (natural protein, S. cerevisiae, UniProt P50874 1-479, looked up) MNVTTPEVAFREYQTNCLASYISADPDITPSNLILQGYSGTGKTYTLKKYFNANPNLHAVWLEPVELVSWKPLLQAIARTVQYKLKTLYPNIPTTDYDPLQVEEPFLLVKTLHNIFVQYESLQEKTCLFLILDGFDSLQDLDAALFNKYIKLNELLPKDSKINIKFIYTMLETSFLQRYSTHCIPTVMFPRYNVDEVSTILVMSRCGELMEDSCLRKRIIEEQITDCTDDQFQNVAANFIHLIVQAFHSYTGNDIFALNDLIDFKWPKYVSRITKENIFEPLALYKSAIKLFLSTDDNLSENGQGESAITTNRDDLENSQTYDLSIISKYLLIASYICSYLEPRYDASIFSRKTRIIQGRAAYGRRKKKEVNPRYLQPSLFAIERLLAIFQAIFPIQGKAESGSLSALREESLMKANIEVFQNLSELHTLKLIATTMNKNIDYLSPKVRWKVNVPWEIIKEISESVHFNISDYFSDIHE | binds | binds | –
B1 | – | – | binds
S. cerevisiae Cdc6 (natural protein, UniProt P09119 1-513, looked up) MSAIPITPTKRIRRNLFDDAPATPPRPLKRKKLQFTDVTPESSPEKLQFGSQSIFLRTKALLQKSSELVNLNSSDGALPARTAEYEQVMNFLAKAISEHRSDSLYITGPPGTGKTAQLDMIIRQKFQSLPLSLSTPRSKDVLRHTNPNLQNLSWFELPDGRLESVAVTSINCISLGEPSSIFQKIFDSFQDLNGPTLQIKNMQHLQKFLEPYHKKTTFVVVLDEMDRLLHANTSETQSVRTILELFLLAKLPTVSFVLIGMANSLDMKDRFLSRLNLDRGLLPQTIVFQPYTAEQMYEIVIQKMSSLPTIIFQPMAIKFAAKKCAGNTGDLRKLFDVLRGSIEIYELEKRFLLSPTRGSLNSAQVPLTPTTSPVKKSYPEPQGKIGLNYIAKVFSKFVNNNSTRTRIAKLNIQQKLILCTIIQSLKLNSDATIDESFDHYIKAITKTDTLAPLQRNEFLEICTILETCGLVSIKKTKCKGKTKRFVDKIDVDLDMREFYDEMTKISILKPFLH | – | – | binds

From paper PMC3299985 (Structure(London, England:1993), 2012)
